# Measured values published in US20090042235A1, “PHOTOREGULATED PEPTIDE, AND METHOD FOR REGULATION OF PEPTIDE-PROTEIN COMPLEX FORMATION USING THE PHOTOREGULATED PEPTIDE” (priority 2005, published 2009).
# Bridge positions count the residues as written; N and C are the ends. Ends that are not written are not given here. DBMNB = photocleavable intramolecular cysteine cross-linker
# Target: T1, PI3-Kα SH3 domain (Homo sapiens, UniProt P27986)
# T1 construct: As a functional protein, an SH3 domain protein of PI3-Kα was used
# Experiment: Circular dichroism (CD) differential spectra of peptide / PI3-Kα SH3 domain mixtures: photoregulation of peptide-protein complex formation
# Assay type: binding
# Method: As a functional protein, an SH3 domain protein of PI3-Kα was used. The PI3-Kα SH3 domain interacts with RLP1. The peptide having an intramolecular cross-linkage obtained in the manner as described above and the PI3-Kα SH3 domain were mixed in 10 mM phosphate buffer solution (pH 7.0), to obtain Mixture solution (I) in which the concentration of the peptide having an intramolecular cross-linkage was 100 microM and that of the PI3-Kα SH3 domain was 20 microM.
# Then, Mixture solution (I) was irradiated with UV light. Irradiation was performed by using Minilite II manufactured by Continuum as a UV irradiator, with pulsed light at wavelength of 355 nm (third harmonic of Nd-YAG laser, pulse width 5 ns, 10 Hz, pulse intensity 4 mJ/cm^2) at 4° C. for 30 minutes. By UV irradiation, either one of the bonds between cysteine and DBMNB in the peptide having an intramolecular cross-linkage was cleaved. This was named Mixture solution (II).
# Used sample solutions are shown below.
# (i) Mixture solution (I) (ii) Mixture solution (II) (iii) Uncross-linked peptide RLP1 100 microM (10 mM phosphate buffer solution, pH 7.0) (iv) Peptide having an intramolecular cross-linkage (not irradiated with UV light) 100 microM (10 mM phosphate buffer solution, pH 7.0) (v) PI3-Kα SH3 domain 20 microM (10 mM phosphate buffer solution, pH 7.0) (vi) Mixture solution prepared by mixing an uncross-linked peptide RLP1 and a PI3-Kα SH3 domain in 10 mM phosphate buffer solution (pH 7.0), so that the concentration of the uncross-linked peptide is 100 microM and that of the PI3-Kα SH3 domain is 20 microM.
# The horizontal axis of the graph represents wavelength of circularly polarized light (Wavelength/nm), and the vertical axis represents intensity of circular dichroism (Δθ/mdeg). In the graph of FIG. 7, “dark” represents different-al spectrum obtained by subtracting CD spectrum (iv) of the peptide having an intramolecular cross-linkage and CD spectrum (v) of the PI3-Kα SH3 domain from CD spectrum (i) of Mixture solution (I). Further, “light” represents differential spectrum obtained by subtracting CD spectrum (i) of Mixture solution (I) from CD spectrum (ii) of Mixture solution (II).
# T1 sequence (P27986 3-79 limits assumed): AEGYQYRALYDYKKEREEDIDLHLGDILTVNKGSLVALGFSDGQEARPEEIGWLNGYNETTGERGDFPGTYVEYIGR
"differential CD spectrum of mixture with PI3-Kα SH3 domain minus peptide and SH3 domain spectra (peak ascribable to formation of complex) (uncross-linked peptide 100 microM, SH3 domain 20 microM, 10 mM phosphate buffer pH 7.0, no irradiation)","interaction with specific recognizing site of the PI3-Kα SH3 domain (differential CD spectrum ""dark"") (Mixture solution (I), not irradiated, peptide 100 microM, SH3 domain 20 microM, 10 mM phosphate buffer pH 7.0, room temperature)","differential CD spectrum ""light"" (Mixture solution (II) minus Mixture solution (I)) (after UV irradiation 355 nm pulsed light, 4° C., 30 minutes, peptide 100 microM, SH3 domain 20 microM, pH 7.0)",complex formation with PI3-Kα SH3 domain (after UV irradiation (cyclic structure dissociated)),Substance
positive peak was observed around 220 nm,–,–,–,"RKLPPRSK [RLP1, reference compound]"
–,no interaction,positive peak was observed around 220 nm,forms a complex,"peptide having an intramolecular cross-linkage: RLP1-2C (Cys Arg Lys Leu Pro Pro Arg Ser Lys Cys) intramolecularly cross-linked between its cysteines via photocleavable DBMNB, cyclic (CRKLPPRSKC; linker 1-10 via DBMNB)"
